# Results published in the RNAGym collection of RNA variant scans (doi:10.1073/pnas.2313332121).
# B1: TPR t1 (parent)
# chain: GACCAAUCUGCCCUCAGAGCUCGAGAACAUCUUCGGAUGCAGAGGAGGCAGGCUUCGGUGGCGCGAUAGCGCCAACGUCCUCAACCUCCAAUGCAUCCCACCACAUGAUGAUGCCUGAAGAGCCUUGGUUUUUUG
# Variants of: B1
# Experiment: polymerase ribozyme fitness, log enrichment relative to wild type (log ratio); higher = more active; in vitro selection for triplet polymerase activity
# Procedure, shortened: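 Fitness compares each genotype's enrichment to that of the wild type on a logarithmic scale, averaging replicates with inverse-variance weights. The logarithm is base 2. Enrichment came from Illumina sequencing of input and output libraries after one triplicate round of in vitro selection, which included frozen incubation at −7 °C, of PCR-built, transcribed mutant libraries of each subunit of a heterodimeric triplet polymerase ribozyme. Only genotypes with ≥10 input reads and ≥1 read per output were kept.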
row,Variant,polymerase ribozyme fitness (log ratio)
1,GACCAAUCUGCCCUCAGAGCUCGAGAACAUCUUCGGAUGCAGAGAAGGCAGGCUUCGGUGGCGCGAUAGCGCUAACGUCCUCAACCUCCAAUGCAUCCCACCACAUGAUGAUACUUGAAGAGCCUUGGUUUUUUG [G45A C73U G113A C115U],-4.38
2,GACCAAUCUGCCCUCAGAGCUCGAGAACAUCUUCGAAUGCAGAGGAGGCAGGCUUCGGUGGCGCGAUAGCGCCAACGUCCUCAACCUCCAAUCCAUCCCACCACAUGAUGAUGCCUGAAGAGCCUUGGUUUUUUG [G36A G93C],-1.47
3,GACCAAUCUGCCCUCAGAGCUCGAGAACAUCUUCGGAUGUAGAGGGGGCAGGCUUCGGUGUCGCGAUAGCGCCAACGUCCUCAACCUCCAAUGCAUCCCACCACAUGAUAAUGCCAGAAGAGCCUUGGUUUUUUG [C40U A46G G61U G110A U116A],-3.75
4,GACCAAUCUGCCUUCAGAGCUCGAGAACAUCUUCGGAUGCAGAGGAGGCAGGCUUCGGUGGCGCGAUAGCGCCAACGUCCUCAACCUCCAAUGCAUACCACCACAUGAUGAUGCCUGAAGAGCCUUGGUUUUUUG [C13U C97A],-3.93
5,GACCAAUCUGCCCUCAGAGCUCGAGAACAUCUUCGGAUGCAGGGGAGGCAGGCUUCGGUGGCGCGAUAGCGGCAACGUCCUCAACCUCCAAUGCAUCCCACCACAUGAUGAUGCCUGAAGAGCCUUGGUUUUUUG [A43G C72G],-1.52
6,GACCAAUCUGUCCUCAGAGCUCGAGAACAUCUUCGGAUGCAGCGGAGGCAGGCUUCGGUGGCGCGAUAGCGCCAAUGUCCUCUACCUCCGAUGCAUCCCACCACAUGAUGAUGCCUGAAGAGCCUUGGUUUUUUG [C11U A43C C76U A83U A90G],-3.5
7,GACCAAACUGCCUUCAGAGCUGGAGAACAUCUUCGGAUGCAGAGGAGGCAGGCUUCGGUGGCGCGAUAGCGCCAACGUCCUCAACCUCCAAUGCAUCCCACCCCAUGAUGAUGCCUGAAGAGCCUUGGUCUUUUG [U7A C13U C22G A103C U130C],-4.17
8,GACCAAUCUGCCCUCAGAGCUCGAGAACAUCUUCGGAUGCAGAGGAGGCAGGCUUCGGUGGCGCGAUAGCGCCAACCUCCUCAACCUCCAAUGCAUCCCACCACAUGAUGAUGCCUGAAGAGCCUUGGUGUUUUG [G77C U130G],-1.48
9,GACCAAUCUGCCCUCAGAGCUCGAGAACAUCUUCGGAUGCAGAGGAGGCGGGCUUCGGUGGCGCGAUAGCGCCAACGUCCUCAACCUCCAAUGCAUCCCACCACAUGAUGAUUCCUGAAGAGCCUUGGUUUUUUG [A50G G113U],-2.68
10,GACCAAUCUGCCCUCAGAGCUCGAGAACAUCUUCGGAUGCAGAGGAGGCAGACUUCGGUGGCGCGAUAGUGCCAACGUCCUCAACCUCCAAUGCAUCCCACCAAAUGAUGAUGCCUGAAGAGCGUUGGUUUUUUG [G52A C70U C104A C124G],-3.65
11,GACCAAUCUGCCCUCAGAGCUCGAGAACAUCUUCGGAUGCAGAGGAGGCAGGCUUCGGUGGCGCGAUAGGGCCAACGUCCUCAACCUCCAAUGCAUCCCACCACAUGAUGAUGCCUGUAGAGCCUUGGUUUUUUG [C70G A118U],-1.64
12,GACCUAUCUGCCCUCAGAGCUCGAGAACAUCUUCGGAUGCAGAGGAGGCAGGCUUCGGUGGCGCGAUAGCGCCAACGUCCUCAACCUCCAAUGCAUCCCACCACAUGAUGAUGCCUGAAGAACCUUGGUUUUUUG [A5U G122A],-0.551
13,GACCAAUCUGCCCUCAGAGCUCGAGAACAUCUUCGGAUGCAGAGGAGGCAGGCUUCGGUGUCGCGAUAGCGACAACGUCCUCAACCUCCAAUGCAUCCCACCACAUGAUGAUGCCUGAAGAGCCUUGGUUUUUUG [G61U C72A],0.45
14,GACCAAUUUGCCCUCAGAGCUCGAGGACAUCUUCGGAUGCAGAGGAGGCAGGCCUCGGUUGCGCGAUAGCGCCAACGUCCUCAACCUCCAAUGCAUCCCACCACAUGAUGAUGCCUGAAGAGCCUUGGUUUUUUG [C8U A26G U54C G60U],-2.1
15,GACUAAUCUGCCCUCAGAGCUCGAGAACAUCUUCGGAUGCAGAGGAGGCAGGCUUCGGUGGCGCGAUACCGCCAACGUCCUCAACCUCCAAUGCAUUCCACCACAUGAUGAUGCCUGAAGAACCUUGGUUUUUUG [C4U G69C C97U G122A],-2.49
16,GACCAAUCUGCCCUCAGAGCUCGAGAACAUCUUCGGAUGCAGAGGAGGCAGGCUUCCGUGGCGCGAUAGCGCCAACGUCCUCAACCUCAAAUGCGUCCCACCACAUGAUGUUGCCUGAAGUGCCUUGGUUUUUUG [G57C C89A A95G A111U A121U],-2.97
17,GACCAAUCUGCCCUCAGAGCUCGAGAACAUCUUCGGAUGCAGAGGAGGCAGGCUUCGGUGGCGCGAUAGCGCCAACGUCCUCAACCUCCAAUGCAUCCCACCACAUGAUUAUGCCUGAAGAGCCUUGGUUUUCUG [G110U U133C],0.02
18,GACCAAUGUGCCCUCAGAGCUCGAGAACAUCUUCGGAUGCAAAGGAGGCAGGAUUCGGUGGCACGAUAGCGCCAACGUCCCAAACUUCCAAUGCAUCCGACCACAUGAUGAUGCCUGUAGAGCCUUGGUUUUUUG [C8G G42A C53A G63A U81C C82A C86U C99G A118U],-7.86
19,GACCAAUCUGCCCUCAGAGCUCGAGAACAUCUUCGGAUGCAGAGGAGGCAAGCUUCGGUGGAGCGAUAGCGCCACCGUCCUCAACCUCCAAUGCAUCCCACCACAUGAUGAUGCCUGAAGAGCCUUGGUUAUUUG [G51A C62A A75C U131A],-5.36
20,GACCAAUGUGCCCUCAGAGCUCGAGAACAUCUUCGGAUGCAGAGGAGGCAGGCUUCGGUGGCGCGAUAGCGCCAACGUCCUCAACCUCCAAUACAUCCCACCACAUGAUGAUGCCUGAAGAGCCUUGGUUUUUUG [C8G G93A],-0.604
21,GACCAAUCUGCCCUCACAGCUCGAGAACUUCUUCGGAUGCAGAGGAGGCAGGCUUCGGUGGCGCGAUAGCGCCAACGUCCUCAACCUCCAAUGCAUCCCACCACAUGAUGAUGCCUGAAGAGCCUUGGUUUUUUG [G17C A29U],-6.04
